Tests used:
[1] = test system: PRC2-5m SUZ12 S583A (HEK293T) (human); assay: EMSA; details: EMSA: 0.5 nM nucleosome, PRC2-5m 2-fold dilutions from 2 uM, 10 mM Tris 8.0, 50 mM NaCl, 10% glycerol, on ice 30 min; 4% native gel, 1x TGE, SYBR Gold
[2] = molecular target: mononucleosome (Xenopus laevis histone octamer on 147-bp 601 DNA) (Xenopus laevis); assay: native gel or EMSA; 0.5 nM nucleosomes with PRC2-5m (2-fold serial dilution from 2 μM), 10 mM Tris 8.0, 50 mM NaCl, 10% glycerol, on ice 30 min; 4% native polyacrylamide gel, SYBR Gold

fold reduction of the nucleosome binding affinity against the WT complex [2] [fold]	Substance	binding signal (fold higher Kd than WT) [1]
	601 mononucleosome, 147 bp	2
2	PRC2-5m (EZH2–EED–SUZ12–RBBP4–AEBP2) containing the S583A mutation of SUZ12, expressed in HEK293T cells (from UniProt Q15910 1-746; O75530 1-441; Q15022 1-739; Q09028 1-425; Q6ZN18 1-295) (complex)	

From article PMC9645763
